Laboratory results: patent publication US20260132178A1 (SYNERKINE PHARMA B V, published 2026)

T1: IL10 receptor (UniProt Q13651 22-578; Q08334 20-325, limits assumed)
T1 sequence (looked up) 1: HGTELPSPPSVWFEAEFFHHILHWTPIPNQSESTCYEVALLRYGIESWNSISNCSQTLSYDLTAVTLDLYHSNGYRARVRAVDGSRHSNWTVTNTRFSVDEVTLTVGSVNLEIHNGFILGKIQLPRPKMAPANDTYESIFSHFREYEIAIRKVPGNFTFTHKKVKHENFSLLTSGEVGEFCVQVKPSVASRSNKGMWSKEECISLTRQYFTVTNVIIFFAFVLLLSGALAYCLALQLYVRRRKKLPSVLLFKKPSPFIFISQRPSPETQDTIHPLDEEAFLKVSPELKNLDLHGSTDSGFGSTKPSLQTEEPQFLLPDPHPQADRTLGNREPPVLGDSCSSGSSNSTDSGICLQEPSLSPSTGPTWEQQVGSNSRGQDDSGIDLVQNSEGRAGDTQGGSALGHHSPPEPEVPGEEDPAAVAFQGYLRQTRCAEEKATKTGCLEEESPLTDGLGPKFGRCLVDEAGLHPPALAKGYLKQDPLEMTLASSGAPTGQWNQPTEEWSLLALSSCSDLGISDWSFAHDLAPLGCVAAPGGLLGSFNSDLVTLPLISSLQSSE
T1 sequence (looked up) 2: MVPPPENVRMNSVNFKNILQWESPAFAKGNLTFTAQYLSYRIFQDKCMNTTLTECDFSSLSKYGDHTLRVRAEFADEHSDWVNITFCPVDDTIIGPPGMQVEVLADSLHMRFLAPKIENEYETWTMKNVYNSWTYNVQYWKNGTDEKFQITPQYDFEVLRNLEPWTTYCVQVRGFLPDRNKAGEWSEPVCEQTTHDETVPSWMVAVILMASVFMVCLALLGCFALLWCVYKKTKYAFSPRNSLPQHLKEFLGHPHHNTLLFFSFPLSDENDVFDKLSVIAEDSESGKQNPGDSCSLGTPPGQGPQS

T2: IL4 (type II) receptor (UniProt P24394 26-825; P78552 22-427, limits assumed)
T2 sequence (looked up) 1: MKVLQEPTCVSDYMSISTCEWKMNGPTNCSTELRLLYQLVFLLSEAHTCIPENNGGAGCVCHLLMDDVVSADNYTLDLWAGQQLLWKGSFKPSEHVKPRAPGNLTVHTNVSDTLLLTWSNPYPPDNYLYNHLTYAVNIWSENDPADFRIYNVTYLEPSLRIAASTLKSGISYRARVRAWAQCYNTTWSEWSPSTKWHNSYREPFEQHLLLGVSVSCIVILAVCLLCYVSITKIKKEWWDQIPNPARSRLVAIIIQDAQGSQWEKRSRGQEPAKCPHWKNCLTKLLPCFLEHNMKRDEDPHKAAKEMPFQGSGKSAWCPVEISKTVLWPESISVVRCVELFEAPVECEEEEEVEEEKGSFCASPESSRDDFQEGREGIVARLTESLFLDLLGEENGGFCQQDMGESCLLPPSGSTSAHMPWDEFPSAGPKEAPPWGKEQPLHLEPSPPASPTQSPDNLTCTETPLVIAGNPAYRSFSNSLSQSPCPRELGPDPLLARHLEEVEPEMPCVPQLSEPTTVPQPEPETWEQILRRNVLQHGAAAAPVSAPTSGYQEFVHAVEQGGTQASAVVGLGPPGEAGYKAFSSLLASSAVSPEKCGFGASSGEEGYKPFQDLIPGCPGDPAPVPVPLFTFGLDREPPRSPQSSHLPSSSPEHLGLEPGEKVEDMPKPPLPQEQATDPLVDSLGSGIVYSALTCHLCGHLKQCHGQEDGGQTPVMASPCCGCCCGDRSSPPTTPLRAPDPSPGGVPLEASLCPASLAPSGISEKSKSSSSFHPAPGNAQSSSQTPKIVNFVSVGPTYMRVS
T2 sequence (looked up) 2: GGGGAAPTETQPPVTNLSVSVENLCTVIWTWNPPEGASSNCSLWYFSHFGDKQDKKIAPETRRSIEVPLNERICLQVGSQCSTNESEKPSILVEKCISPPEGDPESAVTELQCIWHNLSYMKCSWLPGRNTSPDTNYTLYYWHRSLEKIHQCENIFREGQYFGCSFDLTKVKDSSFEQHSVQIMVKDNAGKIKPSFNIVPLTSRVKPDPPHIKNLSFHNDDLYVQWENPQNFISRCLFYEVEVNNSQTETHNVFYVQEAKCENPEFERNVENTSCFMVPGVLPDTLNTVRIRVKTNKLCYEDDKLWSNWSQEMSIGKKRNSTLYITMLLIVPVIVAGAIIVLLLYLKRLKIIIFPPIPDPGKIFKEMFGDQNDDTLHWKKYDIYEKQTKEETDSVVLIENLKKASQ


What was measured:
Experiment in all cases: cell-based or functional assay
IL10 receptor = biological target: T1, IL10 receptor
mIL4Ra/mIL13Ra2 = mIL4Ra/mIL13Ra2 (mouse, UniProt P16382 26-257; O88786 22-355)
Sequence of mIL4Ra/mIL13Ra2 (P16382 26-257, chain 1 of 2): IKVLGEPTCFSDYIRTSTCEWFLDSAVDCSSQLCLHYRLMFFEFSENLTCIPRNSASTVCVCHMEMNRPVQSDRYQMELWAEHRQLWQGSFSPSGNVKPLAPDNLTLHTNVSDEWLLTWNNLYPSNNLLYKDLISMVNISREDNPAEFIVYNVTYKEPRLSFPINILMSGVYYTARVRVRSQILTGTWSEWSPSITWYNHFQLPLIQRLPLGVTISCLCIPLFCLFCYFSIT
Sequence of mIL4Ra/mIL13Ra2 (O88786 22-355, chain 2 of 2): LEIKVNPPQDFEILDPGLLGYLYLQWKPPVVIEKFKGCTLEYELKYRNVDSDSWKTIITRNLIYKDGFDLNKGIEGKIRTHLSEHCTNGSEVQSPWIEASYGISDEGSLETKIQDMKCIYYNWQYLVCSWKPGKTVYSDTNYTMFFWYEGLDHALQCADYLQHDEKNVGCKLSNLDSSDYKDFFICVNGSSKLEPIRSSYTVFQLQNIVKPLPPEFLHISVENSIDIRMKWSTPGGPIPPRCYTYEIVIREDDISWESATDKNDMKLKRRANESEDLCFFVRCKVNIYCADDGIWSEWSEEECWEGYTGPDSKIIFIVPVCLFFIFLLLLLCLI

IL4 (type II) receptor = biological target: T2, IL4 (type II) receptor

| Binder | HEK-Blue IL10 EC50 (STAT-3 mediated SEAP expression) (IL10 receptor) | other results |
| --- | --- | --- |
| IL4-10M(J) (ligand) HKCDITLQEIIKTLNSLTEQKTLCTELTVTDIFAASKNTTEKETFCRAATVLRQFYSHHEKDTRCLGATAQQFHRHKQLIRFLKRLDRNLWGLAGLNSCPVKEANQSTLENFLERLKTIMREKYSKCSSGSGGGGSGTSPGQGTQSENSCTHFPGNLPNMLRDLRDAFSRVKTFFQMKDQLDNLLLKESLLEDFKGYLGCQALSEMIQFYLEEVMPQAENQDPDIKAHVNSLGENLKTLRLRLRRCHRFLPCENGGGSGGKSKAVEQVKNAFNKLQEKGIYKAMSEFDIFINYIEAYMTMKIRN | 0.0778 nM | – |
| IL4-13 Fc (mouse) (Fc fusion) chain 1: HIHGCDKNHLREIIGILNEVTGEGTPCTEMDVPNVLTATKNTTESELVCRASKVLRIFYLKHGKTPCLKKNSSVLMELQRLFRAFRCLDSSISCTMNESKSTSLKDFLESLKSIMQMDYSGSGGGGSGTCKPCICTVPEVSSVFIFPPKPKDVLTITLTPKVTCVVVAISKDDPEVQFSWFVDDVEVHTAQTKPREEQINSTFRSVSELPIMHQDWLNGKEFKCRVNSAAFPAPIEKTISKTKGRPKAPQVYTIPPPKKQMAKDKVSLTCMITNFFPEDITVEWQWNGQPAENYKNTQPIMKTDGSYFVYSKLNVQKSNWEAGNTFTCSVLHEGLHNHHTEKSLSHSPGK chain 2: APGPVPRSVSLPLTLKELIEELSNITQDQTPLCNGSMVWSVDLAAGGFCVALDSLTNISNCNAIYRTQRILHGLCNRKAPTTVSSLPDTKIEVAHFITKLLSYTKQLFRHGPFTGSGGGGSGTCKPCICTVPEVSSVFIFPPKPKDVLTITLTPKVTCVVVAISKDDPEVQFSWFVDDVEVHTAQTKPREEQINSTFRSVSELPIMHQDWLNGKEFKCRVNSAAFPAPIEKTISKTKGRPKAPQVYTIPPPKEQMAKDKVSLTCMITNFFPEDITVEWQWNGQPAENYKNTQPIMDTDGSYFVYSELNVQKSNWEAGNTFTCSVLHEGLHNHHTEDSLSHSPGK | – | Heterologous clustering mIL4Ra/mIL13Ra2 EC50 (NanoBiT enzyme complementation) (mIL4Ra/mIL13Ra2): 1100 pM |
| IL4-13 (mouse) (ligand) HHHHHHIHGCDKNHLREIIGILNEVTGEGTPCTEMDVPNVLTATKNTTESELVCRASKVLRIFYLKHGKTPCLKKNSSVLMELQRLFRAFRCLDSSISCTMNESKSTSLKDFLESLKSIMQMDYSGSGGGGSGTAPGPVPRSVSLPLTLKELIEELSNITQDQTPLCNGSMVWSVDLAAGGFCVALDSLTNISNCNAIYRTQRILHGLCNRKAPTTVSSLPDTKIEVAHFITKLLSYTKQLFRHGPF | – | Heterologous clustering mIL4Ra/mIL13Ra2 EC50 (NanoBiT enzyme complementation) (mIL4Ra/mIL13Ra2): 187 pM |
| IL10M(J) (ligand) SPGQGTQSENSCTHFPGNLPNMLRDLRDAFSRVKTFFQMKDQLDNLLLKESLLEDFKGYLGCQALSEMIQFYLEEVMPQAENQDPDIKAHVNSLGENLKTLRLRLRRCHRFLPCENGGGSGGKSKAVEQVKNAFNKLQEKGIYKAMSEFDIFINYIEAYMTMKIRN | 0.0634 nM | – |
| IL10M(S) (ligand) KSKAVEQVKNAFNKLQEKGIYKAMSEFDIFINYIEAYMTMKIRNGSGGGGSGTSPGQGTQSENSCTHFPGNLPNMLRDLRDAFSRVKTFFQMKDQLDNLLLKESLLEDFKGYLGCQALSEMIQFYLEEVMPQAENQDPDIKAHVNSLGENLKTLRLRLRRCHRFLPCEN | 0.149 nM | – |
| IL4-Fc (Fc fusion) HKCDITLQEIIKTLNSLTEQKTLCTELTVTDIFAASKNTTEKETFCRAATVLRQFYSHHEKDTRCLGATAQQFHRHKQLIRFLKRLDRNLWGLAGLNSCPVKEANQSTLENFLERLKTIMREKYSKCSSGSGGGGSGTCPPCPAPELLGGPSVFLFPPKPKDTLMISRTPEVTCVVVDVSHEDPEVKFNWYVDGVEVHNAKTKPREEQYNSTYRVVSVLTVLHQDWLNGKEYKCKVSNKALPAPIEKTISKAKGQPREPQVCTLPPSRDELTKNQVSLSCAVKGFYPSDIAVEWESNGQPENNYKTTPPVLDSDGSFFLVSKLTVDKSRWQQGNVFSCSVMHEALHNHYTQKSLSLSPGK | – | HEK-Blue IL4/13 EC50 (STAT6-induced SEAP expression) (IL4 (type II) receptor): 0.0201 nM |
| IL4-10 fusion (wt, dimer) (ligand) HKCDITLQEIIKTLNSLTEQKTLCTELTVTDIFAASKNTTEKETFCRAATVLRQFYSHHEKDTRCLGATAQQFHRHKQLIRFLKRLDRNLWGLAGLNSCPVKEANQSTLENFLERLKTIMREKYSKCSSGSGGGGSGTSPGQGTQSENSCTHFPGNLPNMLRDLRDAFSRVKTFFQMKDQLDNLLLKESLLEDFKGYLGCQALSEMIQFYLEEVMPQAENQDPDIKAHVNSLGENLKTLRLRLRRCHRFLPCENKSKAVEQVKNAFNKLQEKGIYKAMSEFDIFINYIEAYMTMKIRN | 0.0289 nM | – |
| IL4-10M(J) mouse Fc (Fc fusion) chain 1: HKCDITLQEIIKTLNSLTEQKTLCTELTVTDIFAASKNTTEKETFCRAATVLRQFYSHHEKDTRCLGATAQQFHRHKQLIRFLKRLDRNLWGLAGLNSCPVKEANQSTLENFLERLKTIMREKYSKCSSGSGGGGSGTCKPCICTVPEVSSVFIFPPKPKDVLTITLTPKVTCVVVAISKDDPEVQFSWFVDDVEVHTAQTKPREEQINSTFRSVSELPIMHQDWLNGKEFKCRVNSAAFPAPIEKTISKTKGRPKAPQVYTIPPPKKQMAKDKVSLTCMITNFFPEDITVEWQWNGQPAENYKNTQPIMKTDGSYFVYSKLNVQKSNWEAGNTFTCSVLHEGLHNHHTEKSLSHSPGK chain 2: SPGQGTQSENSCTHFPGNLPNMLRDLRDAFSRVKTFFQMKDQLDNLLLKESLLEDFKGYLGCQALSEMIQFYLEEVMPQAENQDPDIKAHVNSLGENLKTLRLRLRRCHRFLPCENGGGSGGKSKAVEQVKNAFNKLQEKGIYKAMSEFDIFINYIEAYMTMKIRNTGSGGGGSGTCKPCICTVPEVSSVFIFPPKPKDVLTITLTPKVTCVVVAISKDDPEVQFSWFVDDVEVHTAQTKPREEQINSTFRSVSELPIMHQDWLNGKEFKCRVNSAAFPAPIEKTISKTKGRPKAPQVYTIPPPKEQMAKDKVSLTCMITNFFPEDITVEWQWNGQPAENYKNTQPIMDTDGSYFVYSELNVQKSNWEAGNTFTCSVLHEGLHNHHTEDSLSHSPGK | 0.52 nM | – |
| IL4-10M(S) (ligand) KSKAVEQVKNAFNKLQEKGIYKAMSEFDIFINYIEAYMTMKIRNGSGGGGSGTSPGQGTQSENSCTHFPGNLPNMLRDLRDAFSRVKTFFQMKDQLDNLLLKESLLEDFKGYLGCQALSEMIQFYLEEVMPQAENQDPDIKAHVNSLGENLKTLRLRLRRCHRFLPCENGSGGGGSGTHKCDITLQEIIKTLNSLTEQKTLCTELTVTDIFAASKNTTEKETFCRAATVLRQFYSHHEKDTRCLGATAQQFHRHKQLIRFLKRLDRNLWGLAGLNSCPVKEANQSTLENFLERLKTIMREKYSKCSSHHHHHH | 0.117 nM | – |
